Read-outs that look alike come from different tables or passages of the source. Values belong to the binder of their own block, whether it stands above or below them.
Experiments:
[1] = biological target: Human FcγRIIIa on natural killer (NK) cells of a donor (human, UniProt P08637 17-254); assay: cell-based or functional assay
[2] = biological target: T1, human C1q (Sigma C0660) (human, UniProt P02745 23-245; P02746 28-253; P02747 29-245); assay: C1q ELISA on CD2, purified
T1 construct: Bought protein; also called complement protein C1q

[3] = biological target: T2, human FcγRIII (CD16), CD16a (F158), on CD16-transfected Jurkat cells (human, UniProt P08637 17-254); assay: CD16 bridging assay, purified
T2 construct: whole, on cells

[4] = biological target: T3, human FcγRI (CD64) on IFNγ-activated U937 cells (human, UniProt P12314 16-374); assay: CD64 bridging assay, purified
T3 construct: whole, on cells; also called FcγR1

[5] = biological target: T2, human FcγRIII (CD16), CD16a (F158), on …; assay: CD16 bridging assay, transient
[6] = biological target: T4, GST-tagged FcγRIII, CD16a (V158) (UniProt P08637 17-208, limits assumed); assay: AlphaScreen competition vs huIgG1 beads, purified
T4 construct: the canonical entry carries F there; Captured by biotinylated anti-GST mAb on streptavidin donor beads; also called GST-FcγRIII; not shown: GST tag
Procedure: The relative binding affinities to FcγRIII (CD16), of the variant antibodies, was determined using an AlphaScreen assay (Amplified Luminescent Proximity Homogeneous Assay, PerkinElmer, MA, USA). Laser excitation of a donor bead excites oxygen, which if in close proximity to an acceptor bead generates a cascade of chemiluminescent events, ultimately leading to fluorescence emission at 520-620 nm. […] The reaction was carried out for one hour in a 25 μl volume and plates were read in the Fusion Alpha reader (PerkinElmer).

[7] = biological target: T2, human FcγRIII (CD16), CD16a (F158), on …; assay: CD16 bridging assay, purified; remark: listed apart in the source
[8] = biological target: T2, human FcγRIII (CD16), CD16a (F158), on …; assay: CD16 bridging assay, transient; remark: listed apart in the source
[9] = biological target: T2, human FcγRIII (CD16), CD16a (F158), on …; assay: summary of Table 3 assays
[10] = biological target: T1, human C1q (Sigma C0660); assay: summary of Table 6 assays
[11] = biological target: T1, human C1q (Sigma C0660); assay: C1q ELISA on CD2, transient
[12] = biological target: T2, human FcγRIII (CD16), CD16a (F158), on …; assay: CD16 bridging assay, transient; remark: listed apart in the source
[13] = biological target: T2, human FcγRIII (CD16), CD16a (F158), on …; assay: summary of Table 5 assays
[14] = biological target: T2, human FcγRIII (CD16), CD16a (F158), on …; assay: CD16 bridging assay, transient; remark: listed apart in the source

T1 sequence (P02745 23-245 limits assumed, chain 1 of 3): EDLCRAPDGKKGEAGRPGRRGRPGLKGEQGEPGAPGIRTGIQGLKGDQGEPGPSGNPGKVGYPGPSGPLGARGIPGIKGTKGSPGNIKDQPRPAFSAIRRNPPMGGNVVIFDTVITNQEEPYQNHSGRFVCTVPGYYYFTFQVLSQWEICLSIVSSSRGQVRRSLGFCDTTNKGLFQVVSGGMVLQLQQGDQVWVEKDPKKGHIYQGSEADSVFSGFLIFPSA
T1 sequence (P02746 28-253 limits assumed, chain 2 of 3): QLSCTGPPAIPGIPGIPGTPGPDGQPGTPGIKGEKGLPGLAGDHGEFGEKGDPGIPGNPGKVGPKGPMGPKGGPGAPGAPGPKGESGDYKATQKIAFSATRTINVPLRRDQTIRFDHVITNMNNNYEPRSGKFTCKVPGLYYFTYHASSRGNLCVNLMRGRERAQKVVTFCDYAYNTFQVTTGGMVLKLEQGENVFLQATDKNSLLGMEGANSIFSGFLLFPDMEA
T1 sequence (P02747 29-245 limits assumed, chain 3 of 3): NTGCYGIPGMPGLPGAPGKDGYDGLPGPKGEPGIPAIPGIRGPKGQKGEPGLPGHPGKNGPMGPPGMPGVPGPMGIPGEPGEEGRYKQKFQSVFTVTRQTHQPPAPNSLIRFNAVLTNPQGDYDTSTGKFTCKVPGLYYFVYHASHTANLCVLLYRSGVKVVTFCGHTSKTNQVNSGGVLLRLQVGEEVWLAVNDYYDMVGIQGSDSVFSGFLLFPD
T3 sequence (P12314 16-374): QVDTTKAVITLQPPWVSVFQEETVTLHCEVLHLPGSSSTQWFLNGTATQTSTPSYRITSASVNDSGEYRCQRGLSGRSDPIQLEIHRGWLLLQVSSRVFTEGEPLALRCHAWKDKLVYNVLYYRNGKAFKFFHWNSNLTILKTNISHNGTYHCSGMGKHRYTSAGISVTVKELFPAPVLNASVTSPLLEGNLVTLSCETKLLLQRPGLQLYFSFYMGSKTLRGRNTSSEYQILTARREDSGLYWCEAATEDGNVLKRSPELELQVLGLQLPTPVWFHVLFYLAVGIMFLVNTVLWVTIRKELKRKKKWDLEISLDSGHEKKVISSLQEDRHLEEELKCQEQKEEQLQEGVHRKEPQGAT
T2 sequence (P08637 17-254): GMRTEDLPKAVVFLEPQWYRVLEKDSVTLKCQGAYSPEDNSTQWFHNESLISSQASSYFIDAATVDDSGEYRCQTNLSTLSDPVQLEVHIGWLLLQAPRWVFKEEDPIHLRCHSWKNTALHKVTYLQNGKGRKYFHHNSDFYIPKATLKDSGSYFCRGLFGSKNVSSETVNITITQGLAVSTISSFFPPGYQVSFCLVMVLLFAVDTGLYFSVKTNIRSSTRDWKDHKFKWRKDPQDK

fold increase in binding vs WT [7]: 6 fold | fold increase in binding vs WT [8]: 3 fold
B2: chCB6-huIgG1 S239D/H435S (antibody, name in EU numbering)
heavy: not shown
light: QIVLTQSPAIMSASPGEKVTMTCRASSSVSHMHWYQQKSGTSPKRWIYDTSKLASGVPARFSGSGSGTSYSLTISSVEAEDAATYYCQQWSSNPLTFGAGTKLELKRTVAAPSVFIFPPSDEQLKSGTASVVCLLNNFYPREAKVQWKVDNALQSGNSQESVTEQDSKDSTYSLSSTLTLSKADYEKHKVYACEVTHQGLSSPVTKSFNRGEC
notes: copies: 2 + 2

fold decrease in binding vs WT [9]: > 10 fold | fold decrease in binding vs WT [5]: 13 fold
B7: chCB6-huIgG1 S298N (antibody, name in EU numbering)
heavy: not shown
light: QIVLTQSPAIMSASPGEKVTMTCRASSSVSHMHWYQQKSGTSPKRWIYDTSKLASGVPARFSGSGSGTSYSLTISSVEAEDAATYYCQQWSSNPLTFGAGTKLELKRTVAAPSVFIFPPSDEQLKSGTASVVCLLNNFYPREAKVQWKVDNALQSGNSQESVTEQDSKDSTYSLSSTLTLSKADYEKHKVYACEVTHQGLSSPVTKSFNRGEC
notes: copies: 2 + 2

fold decrease in binding vs WT [13]: > 10 fold | fold decrease in binding vs WT [11]: 3 fold | fold decrease in binding vs WT [14]: 18 fold
B9: chCB6-huIgG1 Y296H (antibody, name in EU numbering)
heavy: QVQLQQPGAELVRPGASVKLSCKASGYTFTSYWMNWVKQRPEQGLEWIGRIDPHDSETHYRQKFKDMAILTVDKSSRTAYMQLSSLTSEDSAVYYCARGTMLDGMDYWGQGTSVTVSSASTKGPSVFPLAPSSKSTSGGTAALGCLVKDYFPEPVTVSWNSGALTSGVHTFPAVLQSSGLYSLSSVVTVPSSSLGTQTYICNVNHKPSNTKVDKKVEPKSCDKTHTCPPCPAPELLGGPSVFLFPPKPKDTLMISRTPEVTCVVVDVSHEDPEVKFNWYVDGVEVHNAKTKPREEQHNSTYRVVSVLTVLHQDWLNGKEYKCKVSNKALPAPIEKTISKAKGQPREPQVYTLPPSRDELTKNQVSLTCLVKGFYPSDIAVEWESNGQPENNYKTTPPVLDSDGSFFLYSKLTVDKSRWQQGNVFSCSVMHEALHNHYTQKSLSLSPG
light: QIVLTQSPAIMSASPGEKVTMTCRASSSVSHMHWYQQKSGTSPKRWIYDTSKLASGVPARFSGSGSGTSYSLTISSVEAEDAATYYCQQWSSNPLTFGAGTKLELKRTVAAPSVFIFPPSDEQLKSGTASVVCLLNNFYPREAKVQWKVDNALQSGNSQESVTEQDSKDSTYSLSSTLTLSKADYEKHKVYACEVTHQGLSSPVTKSFNRGEC
notes: copies: 2 + 2

fold decrease in binding vs WT [13]: > 10 fold | binding result [11]: binds | fold decrease in binding vs WT [14]: 13 fold
B13: chCB6-huIgG1 R301Q (antibody, name in EU numbering)
heavy: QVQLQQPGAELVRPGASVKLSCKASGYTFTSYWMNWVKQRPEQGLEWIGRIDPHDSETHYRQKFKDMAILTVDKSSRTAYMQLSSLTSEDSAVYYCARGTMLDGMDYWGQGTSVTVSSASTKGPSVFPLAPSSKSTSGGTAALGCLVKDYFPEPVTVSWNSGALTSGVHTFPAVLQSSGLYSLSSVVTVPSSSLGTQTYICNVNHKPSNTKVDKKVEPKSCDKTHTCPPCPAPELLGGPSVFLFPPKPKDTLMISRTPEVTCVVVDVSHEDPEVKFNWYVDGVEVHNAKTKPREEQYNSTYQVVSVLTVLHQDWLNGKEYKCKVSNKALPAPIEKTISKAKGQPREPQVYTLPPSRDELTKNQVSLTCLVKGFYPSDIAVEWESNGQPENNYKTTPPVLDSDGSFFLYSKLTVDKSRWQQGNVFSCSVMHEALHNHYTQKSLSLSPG
light: QIVLTQSPAIMSASPGEKVTMTCRASSSVSHMHWYQQKSGTSPKRWIYDTSKLASGVPARFSGSGSGTSYSLTISSVEAEDAATYYCQQWSSNPLTFGAGTKLELKRTVAAPSVFIFPPSDEQLKSGTASVVCLLNNFYPREAKVQWKVDNALQSGNSQESVTEQDSKDSTYSLSSTLTLSKADYEKHKVYACEVTHQGLSSPVTKSFNRGEC
notes: copies: 2 + 2

More lines, now with the values behind:

B1: chCB6-huIgG1 I332E (antibody, name in EU numbering)
heavy: not shown
light: QIVLTQSPAIMSASPGEKVTMTCRASSSVSHMHWYQQKSGTSPKRWIYDTSKLASGVPARFSGSGSGTSYSLTISSVEAEDAATYYCQQWSSNPLTFGAGTKLELKRTVAAPSVFIFPPSDEQLKSGTASVVCLLNNFYPREAKVQWKVDNALQSGNSQESVTEQDSKDSTYSLSSTLTLSKADYEKHKVYACEVTHQGLSSPVTKSFNRGEC
notes: copies: 2 + 2
ADCC NK cell, purified (fold increase vs WT) [1]: 24 fold | binding result [2]: binds | fold increase in binding vs WT [3]: 7 fold | binding result [4]: binds | fold increase in binding vs WT [5]: 20 fold | fold increase in binding vs WT [6]: 8 fold

B3: chCB6-huIgG1 F241Q (antibody, name in EU numbering)
heavy: not shown
light: QIVLTQSPAIMSASPGEKVTMTCRASSSVSHMHWYQQKSGTSPKRWIYDTSKLASGVPARFSGSGSGTSYSLTISSVEAEDAATYYCQQWSSNPLTFGAGTKLELKRTVAAPSVFIFPPSDEQLKSGTASVVCLLNNFYPREAKVQWKVDNALQSGNSQESVTEQDSKDSTYSLSSTLTLSKADYEKHKVYACEVTHQGLSSPVTKSFNRGEC
notes: copies: 2 + 2
fold decrease in binding vs WT [9]: > 10 fold | fold decrease in binding vs WT [5]: 30 fold

B4: chCB6-huIgG1 A378W (antibody, name in EU numbering)
heavy: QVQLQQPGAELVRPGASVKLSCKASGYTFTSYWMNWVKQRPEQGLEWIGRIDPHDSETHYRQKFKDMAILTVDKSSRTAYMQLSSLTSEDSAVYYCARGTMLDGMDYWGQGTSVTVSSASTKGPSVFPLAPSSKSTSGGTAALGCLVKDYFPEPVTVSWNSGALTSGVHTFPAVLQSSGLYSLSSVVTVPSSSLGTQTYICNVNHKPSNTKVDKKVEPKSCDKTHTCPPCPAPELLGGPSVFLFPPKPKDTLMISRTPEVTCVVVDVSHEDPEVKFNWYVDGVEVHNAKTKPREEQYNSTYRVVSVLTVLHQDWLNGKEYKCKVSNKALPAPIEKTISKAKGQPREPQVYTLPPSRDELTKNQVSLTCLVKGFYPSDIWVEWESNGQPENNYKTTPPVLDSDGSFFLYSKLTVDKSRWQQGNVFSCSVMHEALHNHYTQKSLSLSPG
light: QIVLTQSPAIMSASPGEKVTMTCRASSSVSHMHWYQQKSGTSPKRWIYDTSKLASGVPARFSGSGSGTSYSLTISSVEAEDAATYYCQQWSSNPLTFGAGTKLELKRTVAAPSVFIFPPSDEQLKSGTASVVCLLNNFYPREAKVQWKVDNALQSGNSQESVTEQDSKDSTYSLSSTLTLSKADYEKHKVYACEVTHQGLSSPVTKSFNRGEC
notes: copies: 2 + 2
fold increase in binding vs WT [10]: > 5 fold | fold increase in binding vs WT [11]: 7 fold | binding result [12]: binds

B5: chCB6-huIgG1 E294S (antibody, name in EU numbering)
heavy: not shown
light: QIVLTQSPAIMSASPGEKVTMTCRASSSVSHMHWYQQKSGTSPKRWIYDTSKLASGVPARFSGSGSGTSYSLTISSVEAEDAATYYCQQWSSNPLTFGAGTKLELKRTVAAPSVFIFPPSDEQLKSGTASVVCLLNNFYPREAKVQWKVDNALQSGNSQESVTEQDSKDSTYSLSSTLTLSKADYEKHKVYACEVTHQGLSSPVTKSFNRGEC
notes: copies: 2 + 2
fold decrease in binding vs WT [13]: > 10 fold | fold decrease in binding vs WT [14]: 12 fold

B6: chCB6-huIgG1 A378F (antibody, name in EU numbering)
heavy: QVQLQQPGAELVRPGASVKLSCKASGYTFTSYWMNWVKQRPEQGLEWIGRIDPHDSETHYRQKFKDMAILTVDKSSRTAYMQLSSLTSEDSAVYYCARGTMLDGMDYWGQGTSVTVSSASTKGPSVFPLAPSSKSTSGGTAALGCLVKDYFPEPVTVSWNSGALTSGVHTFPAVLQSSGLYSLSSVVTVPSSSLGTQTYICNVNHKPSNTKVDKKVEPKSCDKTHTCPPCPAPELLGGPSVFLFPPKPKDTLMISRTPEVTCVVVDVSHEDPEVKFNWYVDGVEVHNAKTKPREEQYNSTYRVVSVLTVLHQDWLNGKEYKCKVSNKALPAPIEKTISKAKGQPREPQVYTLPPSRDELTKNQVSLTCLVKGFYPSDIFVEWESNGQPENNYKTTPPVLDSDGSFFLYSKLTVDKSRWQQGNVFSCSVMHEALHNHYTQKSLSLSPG
light: QIVLTQSPAIMSASPGEKVTMTCRASSSVSHMHWYQQKSGTSPKRWIYDTSKLASGVPARFSGSGSGTSYSLTISSVEAEDAATYYCQQWSSNPLTFGAGTKLELKRTVAAPSVFIFPPSDEQLKSGTASVVCLLNNFYPREAKVQWKVDNALQSGNSQESVTEQDSKDSTYSLSSTLTLSKADYEKHKVYACEVTHQGLSSPVTKSFNRGEC
notes: copies: 2 + 2
fold increase in binding vs WT [10]: > 5 fold | fold increase in binding vs WT [11]: 6 fold | binding result [12]: binds

B8: chCB6-huIgG1 S239E/I332D (antibody, name in EU numbering)
heavy: not shown
light: QIVLTQSPAIMSASPGEKVTMTCRASSSVSHMHWYQQKSGTSPKRWIYDTSKLASGVPARFSGSGSGTSYSLTISSVEAEDAATYYCQQWSSNPLTFGAGTKLELKRTVAAPSVFIFPPSDEQLKSGTASVVCLLNNFYPREAKVQWKVDNALQSGNSQESVTEQDSKDSTYSLSSTLTLSKADYEKHKVYACEVTHQGLSSPVTKSFNRGEC
notes: copies: 2 + 2
binding result [2]: binds | fold increase in binding vs WT [7]: 8 fold | fold increase in binding vs WT [8]: 3 fold | fold increase in binding vs WT [6]: 7 fold

B10: chCB6-huIgG1 L328D (antibody, name in EU numbering)
heavy: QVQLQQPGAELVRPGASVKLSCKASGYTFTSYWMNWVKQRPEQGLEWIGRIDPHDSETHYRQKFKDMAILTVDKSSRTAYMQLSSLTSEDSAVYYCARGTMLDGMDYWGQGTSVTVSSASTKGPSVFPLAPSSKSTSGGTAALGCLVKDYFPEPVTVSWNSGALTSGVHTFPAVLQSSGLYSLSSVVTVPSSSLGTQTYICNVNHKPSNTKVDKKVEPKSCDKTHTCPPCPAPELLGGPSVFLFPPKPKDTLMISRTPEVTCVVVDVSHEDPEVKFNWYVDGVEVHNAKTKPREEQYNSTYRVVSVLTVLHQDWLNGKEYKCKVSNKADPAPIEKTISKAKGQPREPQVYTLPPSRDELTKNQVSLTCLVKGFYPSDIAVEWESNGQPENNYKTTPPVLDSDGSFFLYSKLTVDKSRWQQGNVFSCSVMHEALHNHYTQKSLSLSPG
light: QIVLTQSPAIMSASPGEKVTMTCRASSSVSHMHWYQQKSGTSPKRWIYDTSKLASGVPARFSGSGSGTSYSLTISSVEAEDAATYYCQQWSSNPLTFGAGTKLELKRTVAAPSVFIFPPSDEQLKSGTASVVCLLNNFYPREAKVQWKVDNALQSGNSQESVTEQDSKDSTYSLSSTLTLSKADYEKHKVYACEVTHQGLSSPVTKSFNRGEC
notes: copies: 2 + 2
fold decrease in binding vs WT [9]: > 10 fold | binding result [2]: no binding | binding result [4]: binds | binding result [5]: no binding

B11: chCB6-huIgG1 S239E/I332E (antibody, name in EU numbering)
heavy: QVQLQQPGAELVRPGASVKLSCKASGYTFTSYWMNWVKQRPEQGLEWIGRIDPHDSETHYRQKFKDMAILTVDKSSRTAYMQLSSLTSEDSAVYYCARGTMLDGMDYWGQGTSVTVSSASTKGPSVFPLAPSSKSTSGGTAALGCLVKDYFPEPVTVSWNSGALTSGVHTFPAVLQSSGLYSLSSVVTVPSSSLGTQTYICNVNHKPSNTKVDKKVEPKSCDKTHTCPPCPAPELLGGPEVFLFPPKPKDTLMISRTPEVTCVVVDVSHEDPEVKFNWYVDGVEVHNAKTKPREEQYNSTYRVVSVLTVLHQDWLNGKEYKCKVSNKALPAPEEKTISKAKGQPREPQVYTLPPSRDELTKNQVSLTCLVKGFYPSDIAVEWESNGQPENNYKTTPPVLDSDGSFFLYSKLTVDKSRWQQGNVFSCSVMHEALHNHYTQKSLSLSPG
light: QIVLTQSPAIMSASPGEKVTMTCRASSSVSHMHWYQQKSGTSPKRWIYDTSKLASGVPARFSGSGSGTSYSLTISSVEAEDAATYYCQQWSSNPLTFGAGTKLELKRTVAAPSVFIFPPSDEQLKSGTASVVCLLNNFYPREAKVQWKVDNALQSGNSQESVTEQDSKDSTYSLSSTLTLSKADYEKHKVYACEVTHQGLSSPVTKSFNRGEC
notes: copies: 2 + 2
binding result [2]: binds | fold increase in binding vs WT [7]: 6 fold | fold increase in binding vs WT [8]: 3 fold | fold increase in binding vs WT [6]: 10 fold

B12: chCB6-huIgG1 L328E (antibody, name in EU numbering)
heavy: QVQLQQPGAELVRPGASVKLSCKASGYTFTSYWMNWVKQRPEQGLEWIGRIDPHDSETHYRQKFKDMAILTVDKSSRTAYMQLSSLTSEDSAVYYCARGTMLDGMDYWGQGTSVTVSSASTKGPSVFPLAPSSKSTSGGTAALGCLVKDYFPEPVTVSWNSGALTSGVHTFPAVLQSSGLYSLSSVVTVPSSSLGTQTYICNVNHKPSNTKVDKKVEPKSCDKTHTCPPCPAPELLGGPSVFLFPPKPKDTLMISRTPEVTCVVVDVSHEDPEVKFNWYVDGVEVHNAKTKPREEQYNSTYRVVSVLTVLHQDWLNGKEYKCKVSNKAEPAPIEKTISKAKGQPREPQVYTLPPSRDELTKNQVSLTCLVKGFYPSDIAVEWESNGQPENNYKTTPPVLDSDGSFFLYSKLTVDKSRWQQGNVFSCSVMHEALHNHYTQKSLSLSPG
light: QIVLTQSPAIMSASPGEKVTMTCRASSSVSHMHWYQQKSGTSPKRWIYDTSKLASGVPARFSGSGSGTSYSLTISSVEAEDAATYYCQQWSSNPLTFGAGTKLELKRTVAAPSVFIFPPSDEQLKSGTASVVCLLNNFYPREAKVQWKVDNALQSGNSQESVTEQDSKDSTYSLSSTLTLSKADYEKHKVYACEVTHQGLSSPVTKSFNRGEC
notes: copies: 2 + 2
fold decrease in binding vs WT [9]: > 10 fold | binding result [2]: no binding | fold decrease in binding vs WT [3]: 9 fold | fold decrease in binding vs WT [4]: 14 fold | fold decrease in binding vs WT [5]: 30 fold

B14: chCB6-huIgG1 A378Y (antibody, name in EU numbering)
heavy: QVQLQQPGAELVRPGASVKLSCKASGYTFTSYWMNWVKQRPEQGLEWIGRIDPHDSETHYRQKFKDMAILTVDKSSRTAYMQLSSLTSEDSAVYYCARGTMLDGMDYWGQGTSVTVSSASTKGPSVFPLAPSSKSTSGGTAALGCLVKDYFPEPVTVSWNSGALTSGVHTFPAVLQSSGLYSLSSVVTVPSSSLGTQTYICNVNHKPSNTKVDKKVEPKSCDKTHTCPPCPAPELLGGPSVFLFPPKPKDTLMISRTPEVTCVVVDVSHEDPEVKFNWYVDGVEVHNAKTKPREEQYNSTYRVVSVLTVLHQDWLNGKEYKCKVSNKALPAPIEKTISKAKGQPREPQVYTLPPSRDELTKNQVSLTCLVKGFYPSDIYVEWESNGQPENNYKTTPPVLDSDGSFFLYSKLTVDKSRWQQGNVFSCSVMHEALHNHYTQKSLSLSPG
light: QIVLTQSPAIMSASPGEKVTMTCRASSSVSHMHWYQQKSGTSPKRWIYDTSKLASGVPARFSGSGSGTSYSLTISSVEAEDAATYYCQQWSSNPLTFGAGTKLELKRTVAAPSVFIFPPSDEQLKSGTASVVCLLNNFYPREAKVQWKVDNALQSGNSQESVTEQDSKDSTYSLSSTLTLSKADYEKHKVYACEVTHQGLSSPVTKSFNRGEC
notes: copies: 2 + 2
fold increase in binding vs WT [10]: > 5 fold | fold increase in binding vs WT [11]: 6 fold | binding result [12]: binds

From patent publication US20100203046A1 (Biogen, published 2010)
